From patent CN112851815A (XIAN YUFAN BIOTECHNOLOGIES CO LTD, dated 2021) come the findings set out here.

Assay [1] concerns the target T1, BCMA蛋白 (BCMA protein, B cell maturation antigen) (human, UniProt Q02223 1-54).
T1 construct: extracellular domain; also called 抗原BCMA; CD269
T1 sequence (looked up): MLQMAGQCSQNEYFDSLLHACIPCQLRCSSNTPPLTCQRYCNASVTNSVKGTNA
As to the kind of experiment: ELISA, BCMA coated at 2 μg/mL, serially diluted scFv, detection by mouse anti-HA and HRP goat anti-mouse IgG, OD450. A general note: An ELISA detects its analyte on a solid surface through an enzyme-linked reagent.

The target of assay [2] is T2, BSA蛋白 (BSA, control protein) (UniProt P02769 25-607).
T2 construct: Control protein coated at 2 μg/mL; also called 对照蛋白
T2 sequence (P02769 25-607 limits assumed): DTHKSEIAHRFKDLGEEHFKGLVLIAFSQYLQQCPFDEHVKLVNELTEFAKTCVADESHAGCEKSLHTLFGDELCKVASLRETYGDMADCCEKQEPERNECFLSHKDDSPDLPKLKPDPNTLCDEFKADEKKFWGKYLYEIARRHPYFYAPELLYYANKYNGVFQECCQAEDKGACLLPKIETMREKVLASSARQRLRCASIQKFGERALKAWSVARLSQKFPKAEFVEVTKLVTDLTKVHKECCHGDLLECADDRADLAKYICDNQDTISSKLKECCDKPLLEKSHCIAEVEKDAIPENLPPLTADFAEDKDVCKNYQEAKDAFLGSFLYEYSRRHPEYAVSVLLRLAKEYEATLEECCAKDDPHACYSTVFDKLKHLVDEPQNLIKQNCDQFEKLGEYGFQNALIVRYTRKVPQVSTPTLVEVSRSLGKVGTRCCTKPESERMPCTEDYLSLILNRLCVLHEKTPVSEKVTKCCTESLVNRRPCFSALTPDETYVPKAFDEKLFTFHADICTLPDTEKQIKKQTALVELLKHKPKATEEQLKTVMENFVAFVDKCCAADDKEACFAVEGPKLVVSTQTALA
The assay can be described thus: ELISA, BSA coated at 2 μg/mL, serially diluted scFv, detection by anti-HA and HRP goat anti-mouse IgG.

B1: 抗BCMA单链抗体B36 (anti-BCMA fully human scFv B36) (scFv)
scFv: QVQLVQSGAEVKKPGSSVKVSCKASGGTFSSYAISWVRQAPGQGLEWMGRIIPILGIANYAQKFQGRVTITADESTSTAYMELSSLRSDDTAVYYCARAGYDRSGYYFQHWGQGTLVTVSSGGGGSGGGGSGGGGSVLTQPPSVSGTPGQRVTISCSGSSSNIGSNIVNWYQQVPGTAPKLLIYSNNQRPSGVPGRFSGSKSGTSASLAIRGLQSDDEADYYCAAWDGGPRGHYVFGTGTKVSVL
notes: The purified protein carries C-terminal HA and 6xHis tags; also called 抗BCMA抗体; 抗人BCMA单链抗体; not shown: C-terminal 6xHis tag from vector pET-26b; junction residues between insert and t
For the molecule B1, in assay [1], the concentration for a half-maximal effect (EC50) (in general, the concentration at which the effect is half-maximal) was determined as 0.5 nM. In assay [2], the binding result is “no binding”.
